Data on 1 substance can be found in patent US20040001848.

Series [1] addresses bovine serum albumin (BSA) (UniProt P02769).
Series [2] has as its system myelin basic protein (MBP).
For a further series, the target named is ovalbumin (UniProt P01012).
In series [3] the test system is recombinant serum albumin.
The target of the next series is T1, β-casein (UniProt P02666).
T1 sequence: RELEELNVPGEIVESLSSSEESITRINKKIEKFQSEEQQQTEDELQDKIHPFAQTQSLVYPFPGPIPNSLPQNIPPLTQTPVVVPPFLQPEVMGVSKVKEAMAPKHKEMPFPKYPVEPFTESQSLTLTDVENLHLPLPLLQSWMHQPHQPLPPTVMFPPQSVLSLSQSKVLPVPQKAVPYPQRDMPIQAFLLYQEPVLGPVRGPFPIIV

bovine serum albumin (BSA), sequence (P02769 25-607): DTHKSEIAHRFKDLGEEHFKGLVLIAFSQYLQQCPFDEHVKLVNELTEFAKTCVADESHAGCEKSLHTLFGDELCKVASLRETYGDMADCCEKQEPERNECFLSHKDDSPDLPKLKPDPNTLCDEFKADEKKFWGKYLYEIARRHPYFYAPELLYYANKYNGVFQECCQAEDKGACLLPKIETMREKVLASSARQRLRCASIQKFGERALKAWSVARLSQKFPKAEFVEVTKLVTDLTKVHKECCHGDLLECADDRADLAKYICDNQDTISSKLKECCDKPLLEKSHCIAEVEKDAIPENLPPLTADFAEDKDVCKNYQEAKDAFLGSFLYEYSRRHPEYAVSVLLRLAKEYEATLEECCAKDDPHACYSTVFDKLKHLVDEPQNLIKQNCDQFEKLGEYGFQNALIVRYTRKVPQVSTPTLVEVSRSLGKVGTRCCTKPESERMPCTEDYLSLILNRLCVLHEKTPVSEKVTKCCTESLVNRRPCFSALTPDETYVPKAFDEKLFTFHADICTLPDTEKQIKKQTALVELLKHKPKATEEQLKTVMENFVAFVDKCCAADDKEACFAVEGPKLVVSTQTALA
ovalbumin, sequence (P01012 2-386): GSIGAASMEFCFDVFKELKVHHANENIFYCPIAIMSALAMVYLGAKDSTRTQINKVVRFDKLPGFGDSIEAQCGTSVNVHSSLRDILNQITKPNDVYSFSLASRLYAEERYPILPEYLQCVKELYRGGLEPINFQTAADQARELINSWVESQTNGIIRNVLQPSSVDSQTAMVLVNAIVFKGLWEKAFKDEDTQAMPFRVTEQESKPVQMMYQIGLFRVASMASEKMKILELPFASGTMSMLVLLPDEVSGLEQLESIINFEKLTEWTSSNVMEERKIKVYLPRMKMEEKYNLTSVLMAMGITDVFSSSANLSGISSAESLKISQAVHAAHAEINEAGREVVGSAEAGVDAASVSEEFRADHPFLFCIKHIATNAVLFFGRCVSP

With “recombinant 6×-His-TGase fusion protein of Streptomyces mobaraensis ATCC 29032”, in the series on BSA5 peptide, the “cross-linking of BSA5 peptide on SDS-PAGE” value is recorded as “increased amount of recombinant SM TGase corresponding to an increase in cross-linked (CL) BSA5 peptide”. In series [1], the “cross-linking of native protein” value was “there was no cross-linking”. Moreover, in the series with histone H3 protein, the “cross-linking of native protein” value is “there was no cross-linking”; the “cross-linking of native protein on SDS-PAGE” value is “complete and partial cross-linking was both observed for native histine H3 protein under the condition tested”. In addition, the “cross-linking of native protein” value in series [2] is listed as “there was no cross-linking”. Further, the “cross-linking of native protein” value with ovalbumin is “there was no cross-linking”. Moreover, in series [3], the “cross-linking of recombinant serum albumin on SDS-PAGE” value is given as “revealed a mixture of very high molecular weight polymers of different length”. In the series with β-amyloid peptide (1-42), the “cross-linking of β-amyloid (1-42) peptide on SDS-PAGE, 1 to 3 hours” value is on record as “can be cross-linked by the recombinant transglutaminase as shown as a smear of a mixture of cross-linked peptides”. Further, in the series with β-casein, the “cross-linking of a mixture of β-casein and glucose oxidase on SDS-PAGE” value is “both protein species can be cross-linked by the purified recombinant SM TGase”; the “cross-linking of β-casein on SDS-PAGE” value is “the cross-linked (CL) β-casein migrated as a smear on the SDS-PAGE gel indicating a mixture of high molecular weight polymers of different length”; the “cross-linking of β-casein on SDS-PAGE, 0 mM DTT” value is given as “had no cross-linking activity on β-casein”; the “cross-linking of β-casein on SDS-PAGE, about 2 mM DTT” value is “β-casein run as a mixture of cross-linked polymer and monomer”. The “cross-linking of β-casein on SDS-PAGE, about 10 mM DTT” value with β-casein was “cross-linking of all detectable β-casein substrates in the reaction”.
